Assay results reported in ChEMBL document CHEMBL1124124, “Synthesis and interaction with uridine phosphorylase of 5'-deoxy-4',5-difluorouridine, a new prodrug of 5-fluorouracil” (J Med Chem, 1988).

Columns and labels:
[1] = Kinetic constant for interaction with Urd phosphorylase from Lewis lung carcinoma
[2] = molecular target: Uridine phosphorylase 1 (Mus musculus) (UniProt P52624); assay: as above; details: mouse
Chain of Uridine phosphorylase 1 (Mus musculus) (P52624 whole entry, looked up): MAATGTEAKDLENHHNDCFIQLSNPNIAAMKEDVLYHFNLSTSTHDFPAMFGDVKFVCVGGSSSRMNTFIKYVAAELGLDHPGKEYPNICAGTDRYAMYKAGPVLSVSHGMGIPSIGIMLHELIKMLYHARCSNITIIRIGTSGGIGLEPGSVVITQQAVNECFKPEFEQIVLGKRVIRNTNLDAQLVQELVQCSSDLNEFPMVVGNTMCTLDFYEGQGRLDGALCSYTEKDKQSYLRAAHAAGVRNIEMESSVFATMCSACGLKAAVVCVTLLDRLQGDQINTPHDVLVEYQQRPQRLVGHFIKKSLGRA

B1: Uridine phosphorylase 1 (Homo sapiens), Q16831 (protein)
chain: MAATGANAEKAESHNDCPVRLLNPNIAKMKEDILYHFNLTTSRHNFPALFGDVKFVCVGGSPSRMKAFIRCVGAELGLDCPGRDYPNICAGTDRYAMYKVGPVLSVSHGMGIPSISIMLHELIKLLYYARCSNVTIIRIGTSGGIGLEPGTVVITEQAVDTCFKAEFEQIVLGKRVIRKTDLNKKLVQELLLCSAELSEFTTVVGNTMCTLDFYEGQGRLDGALCSYTEKDKQAYLEAAYAAGVRNIEMESSVFAAMCSACGLQAAVVCVTLLNRLEGDQISSPRNVLSEYQQRPQRLVSYFIKKKLSKA
For B1, the Km [1] was 0.6 mM and the Km [2] was 6 mM.
